Assay results from the nanobody polyreactivity screen of Harvey et al. (2022).

test: yeast display, Sf9 membrane polyspecificity reagent, FACS + sequencing; frameworks hold sequencing errors
In short: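 A nanobody's polyreactivity label depends on the gate it was sorted from. Yeast display cells were stained with 10% biotinylated, detergent-solubilized Sf9 membrane reagent for 1 hour at 4 °C, enriched on streptavidin microbeads and sorted by FACS. The low and high (top ~1%) gates were set on anti-HA fluorescence for expression and streptavidin fluorescence for reagent binding.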

Row | Sequence | polyreactivity (PSR sort gate)
1 | QVQLVESGGGLVQAGGSLRLSCAASGRTFRGYAMGWYRQAPGKERELVAAITWSGGRTYYADSVKGRFTISRDNAKNTVYLQMNSLKPEDTAVYYCATSPGRWGWGYDYEYWGQGTQVTVSS | low polyreactivity
2 | QVQLVESGGGLVQAGGSLRLSCAASGRTFRGYSMGWYRQAPGKERELVAAISTNGGSTRYADSVKGRFTISRDNSKNTVYLQMNSLKPEDTAVYYCARRDYWGQGTQVTVSS | high polyreactivity
3 | QVQLVESGGGLVQAGGSLRLSCAASGRTFRHNALGWYRQAPGKERELVAAISKSGGRTYYADSVKGRFTISRDNAKNTVYLQMNSLKPEDTAVYYCAAPLYVSTSGEVGYWGQGTQVTVSS | high polyreactivity
4 | QVQLVESGGGLVQAGGSLRLSCAASGRTFRINAMGWYRQAPGKERELVAAINDGGDTYADSVKGRFTISRDNANNTVYLQMNSLKPEDTAVYYCAAPLGGGARWGRWWLYDSWGQGTQVTVSS | low polyreactivity
5 | QVQLVESGGGLVQAGGSLRLSCAASGRTFRINAMGWYRQAPGKERELVAAITRGDTNYADSVKGRFTISRDNAKNTVYLQMNSLKPEDTAVYYCNADLSVRYPVFRELDYWGQGTQVTVSS | low polyreactivity
6 | QVQLVESGGGLVQAGGSLRLSCAASGRTFRIYAMGWYLQAPGKERELVAPISGRGGNTYYADSVKGRFTISRDNAKNTVYLHMNSLKPEDTAVYYCAADDATAYRVDGFKYDYWGQGTLVTVSS | high polyreactivity
7 | QVQLVESGGGLVQAGGSLRLSCAASGRTFRIYAMGWYRQAPGKERELVAAIRWSGGTTYYADSVKGGFTISRDNAKNTVYLQMNSLNPDDTAVYYCAADSTNRYDYWGQGTQVTVSS | high polyreactivity
8 | QVQLVESGGGLVQAGGSLRLSCAASGRTFRKNTMGWYRQAPGKEREFVATISSRGGSTFYADSVKGRFTISRDNAKNTVYLQMNSLKPEDTAVYYCNAVYRYSLKPIYDYWGQGTQVTVSS | high polyreactivity
9 | QVQLVESGGGLVQAGGSLRLSCAASGRTFRKYAMGGYRHAPGKEREFVASITWSGGSTYYADSVKGRFTISRDNAKNTVYLQMNSLKPEDTAVYFCAAESWFKYVYWGQGTQVTVSS | low polyreactivity
10 | QVQLVESGGGLVQAGGSLRLSCAASGRTFRKYAMGWYRQAPGKERELVAAINRGGTTKYADSVKGRFTISRDNAKNTVYLEMNSLKPEDTAVYYCAVDRQRAGYPKQYDSWGQGTQVTVSS | low polyreactivity
11 | QVQLVESGGGLVQAGGSLRLSCAASGRTFRKYTMGWYRQAPGKERELVAASASRGGSTYYADSVKGRFTISRDNAKNTVYLQMNSLKPEDTAVYYCATDYITPSSDGDYWGQGTQVTVSS | high polyreactivity
12 | QVQLVESGGGLVQAGGSLRLSCAASGRTFRLYAMGWYRQAPGKERELVAAITRGGRTNYADSVKGRFTISRDNAKNTVYLQMYSLKPEDTAVYYCARDFVAYGDDYWGQGTQVTVSS | low polyreactivity
13 | QVQLVESGGGLVQAGGSLRLSCAASGRTFRLYAMGWYRQAPGKERELVARISRGGSTYYADSVKGRFTISRDNAKNTVYLQMNSLKPEDTAVYYCAAEGWGLSHRYDYWGQGTQVTVSS | high polyreactivity
14 | QVQLVESGGGLVQAGGSLRLSCAASGRTFRNYAMGWYRQAPGKERELVAAIRSGVRTYYADSVKGRFTISRDNAKNTVYLQMNSLKPEDTAVYYCAVATGLLYKSHGYWGQGTQVTVSS | low polyreactivity
15 | QVQLVESGGGLVQAGGSLRLSCAASGRTFRNYAMGWYRQAPGKERELVAAISSGGRTNYADSVKGRFTISRDNAKNTVYLQMNSLKPEDTADYYCAVRRGAFSTYPGYNYWGQGTQVTVSS | high polyreactivity
16 | QVQLVESGGGLVQAGGSLRLSCAASGRTFRNYAMGWYRQAPGKERELVAGITSGGSTNYADSVKGRFTISRDNAKNTVYLQMNSLKPEDTAVYYCNAVRPFYWFWYYGYWGQGTQVTVSS | low polyreactivity
17 | QVQLVESGGGLVQAGGSLRLSCAASGRTFRPYAMGWYRPAPGKERELVAAITGGTRTYYADSVKGRFTISRDNAKNTVYLQMNSLKPEDTAVYYCAKGDFFSKHDYWGQGTQVTVSS | low polyreactivity
18 | QVQLVESGGGLVQAGGSLRLSCAASGRTFRPYAMGWYRQAPGKERELVAAISSRGSSTYYADSVKGRFTISRDNAKNTVYLQMNSLKPEDTAVYYCAARSYWGGLRYDYWGQGTQVTVSS | high polyreactivity
19 | QVQLVESGGGLVQAGGSLRLSCAASGRTFRPYAMGWYRQAPGKERELVAAITSGVSTYYADSVKGRFTISRDNAKNTVYLQMNSLKPEDTAVYYCARGYLRSYRWSYTTRMGYWVQGTQVTVSS | high polyreactivity
20 | QVQLVESGGGLVQAGGSLRLSCAASGRTFRPYAMGWYRQAPGKERELVARITSGGGRTYYADSVKGRFTISRDNAKNTVYLQMNSLKPEDTAVYYCNKAIYSLYRDGYTNFDYWGQGTQVTVSS | high polyreactivity
21 | QVQLVESGGGLVQAGGSLRLSCAASGRTFRPYAMGWYRQAPGKERELVAVISYRGGSTYYADSVKGRFTISRDNAKNTVYLQMNSLKPEDTAVYYCNAQAGWFSRLYYWGQGTQVTVSS | high polyreactivity
22 | QVQLVESGGGLVQAGGSLRLSCAASGRTFRPYTMGWYRQAPGKERELVAAISASGGRTYYADSVKGRFTISRDNAKNTVYLQMNSLKPEDTAVYYCAARVRDSLVYGGWDDYWGQGTQVTVSS | high polyreactivity

Row | Sequence | polyreactivity (PSR sort gate)
23 | QVQLVESGGGLVQAGGSLRLSCAASGRTFRQNVMGWYRQAPGKERELVAAITASGGNTYYADSVKGRFTISRDNAKNTVYLQMNSLKPEDTAVYYCNAVPYLAMDYWGQGTQVTVSS | high polyreactivity
24 | QVQLVESGGGLVQAGGSLRLSCAASGRTFRRNAMGWYREAPGKERELVASINRGGGKNYADSVKGRFTISRDNAKNTVYLQMNSLKPEDTAVYYCAAVPIAADKANGYDYWGQGTQVTVSS | low polyreactivity
25 | QVQLVESGGGLVQAGGSLRLSCAASGRTFRRNVMGWYRQAPGKERELVAAISSGANTNYADSVKGRFTISRDNAKNTVYLQMNSLKPEDTAVYYCAAGEGWRSRTFDYWGQGTQVTVSS | low polyreactivity
26 | QVQLVESGGGLVQAGGSLRLSCAASGRTFRRTAMGWYRQAPGKERELVAAISSRGGSTYYADSVKWRFTISRDNAKNTVYLQMNSLKPEDTAVYYCNRVLTPIWYYVPLYSQPTYYYWGQGTQVTVSS | high polyreactivity
27 | QVQLVESGGGLVQAGGSLRLSCAASGRTFRRYAKGWYRQAPGKERELVATIRSGDNTNYADSVKGRFTISRDNAKNTVYLQMNSLKPEDTAVYYCNRSPKSGQVTYLYSVNAHYDYWGQGTQVSVSS | low polyreactivity
28 | QVQLVESGGGLVQAGGSLRLSCAASGRTFRRYAMGWYRQAPGKERELVAAITWGAGSTRYADSVKGRFTISRDNAKNTVYLQMNSLKPEDTAVYYCAAENTRAYGMYYWGQGTQVTVSS | high polyreactivity
29 | QVQLVESGGGLVQAGGSLRLSCAASGRTFRRYAMGWYRQAPGKERELVASISRTGGSTYYADSVKGRFTISRDNSKNTVYLQMNSLKPEDTAVFYCNAGPSVGWYNYWGQGTQVTVSS | high polyreactivity
30 | QVQLVESGGGLVQAGGSLRLSCAASGRTFRRYNMGWYRQAPGKERELVAAITTSGGSTYYSDSVKGRFTISRDNAKNTVYLQMNSLIPEDTAVYYCAATRRYSGDYWGQGTQVSVSS | high polyreactivity
31 | QVQLVESGGGLVQAGGSLRLSCAASGRTFRRYTMGWYRQAPGKERELVATISKTGGSTYYADSVKGRFTISRDNAKNTVYLQMNSLKPEDTAVYYCAARSVALFIMYYWGQGTQVTVSS | high polyreactivity
32 | QVQLVESGGGLVQAGGSLRLSCAASGRTFRRYVMGWYRQAPGKERELVAAIRWTGGSTYYADSVKGRFTISRDNAKNTVYLQMNSLKPEDTAVYYCAASSYIGYGYLGQGTQVTVSS | high polyreactivity
33 | QVQLVESGGGLVQAGGSLRLSCAASGRTFRRYVMGWYRQAPGKERELVAAISYSGATTYYADSVKGRFTISRDNAKNTVYLQMNSLKPEDTAVYYCAATAPGDRYYWGQGTQVTVSS | high polyreactivity
34 | QVQLVESGGGLVQAGGSLRLSCAASGRTFRSIAMGWYRKAPGKERELVAAITSSGGRTYYADSVKGRFTISRDNAKNTVYVQMNSLTPEDTAVYYCNAGRQHPPRYSSYDYWGQGTQVTVSS | high polyreactivity
35 | QVQLVESGGGLVQAGGSLRLSCAASGRTFRSNAMGWYRQAPGKEREFVAAISSGGSTKYADSVKGRFTISRDNAKNTVYLQMNSLKPEDTAVYYCAAVSHSRYWGEGTQVTVSS | high polyreactivity
36 | QVQLVESGGGLVQAGGSLRLSCAASGRTFRSNTMGWYRQAPGKEREFVAVITYSAGSTYYADSVKGRFTISRDNAKNTVYLQMNSLKPEDTAVYYCAATSKYRGDYWGQGTQVTVSS | high polyreactivity
37 | QVQLVESGGGLVQAGGSLRLSCAASGRTFRSYAMGWYRQAPGKERELVAAISSGGSTNYADSVKGRFTISRDNAKNTVYLQMNSLKPEDTAVYYCNKVVHSFRFPYRYDMDYWGQGTQVTVSS | high polyreactivity
38 | QVQLVESGGGLVQAGGSLRLSCAASGRTFRSYAMGWYRQAPGKERELVVAISLSGGSTYYADSVKGRFTISRDNAKNTVYLQMNSLKPVDTAVYYCNADLIKGTYRWYEGGSQYGYWGQGTQVTVSS | low polyreactivity
39 | QVQLVESGGGLVQAGGSLRLSCAASGRTFRSYDMGWYRQAPGKERELVAAISEDGGYTYYADSVKGRFTISRDNAKNSVYLQMNSVKPEDTAVYYCAKDRPGPLRWWFLYGYWGQGTQVTVSS | low polyreactivity
40 | QVQLVESGGGLVQAGGSLRLSCAASGRTFRTNAMGWYRQAPGKERELVAAITSDGTYYADSVKGRFTISRDNAKKTVYLQMNSLKPEDTAVYYCNVDDRETRDDYWGQGTQVTVSS | low polyreactivity
41 | QVQLVESGGGLVQAGGSLRLSCAASGRTFRTNVMGGYIQAPGKERELVADISKRGGSTYYADSVKGRFTISRDNAMNTVYVQINSQKPDDTAVYYCAADYSPYYYHQGDYWGQGTQVTVSS | high polyreactivity
42 | QVQLVESGGGLVQAGGSLRLSCAASGRTFRTNVMGWYRQAPGKERELVAAISKRGGSTYYADSVKGRFTISRDNAKYTVYLQMNILNPEDTAGYYCAAVFSPYYDHQGDYWGQGTQVTVSS | high polyreactivity
43 | QVQLVESGGGLVQAGGSLRLSCAASGRTFRTYAMGWYRQAPGKERELVAAITSRAGSTYYADSVKGRFTISRDNAKNSVYLQMNSLKPEDTAVYYCAKQYYYGWYWGEDYWGQGTQVTVSS | low polyreactivity
